We go through one molecule from patent US5217864, “Replication initiator protein complex and methods of use thereof” (The Rockefeller University).

The target of the data set is OTF1/NFIII (UniProt P14859 P14859:1-743). In words: EMSA; data not shown.
Chain of OTF1/NFIII (P14859 whole entry, one chain of several): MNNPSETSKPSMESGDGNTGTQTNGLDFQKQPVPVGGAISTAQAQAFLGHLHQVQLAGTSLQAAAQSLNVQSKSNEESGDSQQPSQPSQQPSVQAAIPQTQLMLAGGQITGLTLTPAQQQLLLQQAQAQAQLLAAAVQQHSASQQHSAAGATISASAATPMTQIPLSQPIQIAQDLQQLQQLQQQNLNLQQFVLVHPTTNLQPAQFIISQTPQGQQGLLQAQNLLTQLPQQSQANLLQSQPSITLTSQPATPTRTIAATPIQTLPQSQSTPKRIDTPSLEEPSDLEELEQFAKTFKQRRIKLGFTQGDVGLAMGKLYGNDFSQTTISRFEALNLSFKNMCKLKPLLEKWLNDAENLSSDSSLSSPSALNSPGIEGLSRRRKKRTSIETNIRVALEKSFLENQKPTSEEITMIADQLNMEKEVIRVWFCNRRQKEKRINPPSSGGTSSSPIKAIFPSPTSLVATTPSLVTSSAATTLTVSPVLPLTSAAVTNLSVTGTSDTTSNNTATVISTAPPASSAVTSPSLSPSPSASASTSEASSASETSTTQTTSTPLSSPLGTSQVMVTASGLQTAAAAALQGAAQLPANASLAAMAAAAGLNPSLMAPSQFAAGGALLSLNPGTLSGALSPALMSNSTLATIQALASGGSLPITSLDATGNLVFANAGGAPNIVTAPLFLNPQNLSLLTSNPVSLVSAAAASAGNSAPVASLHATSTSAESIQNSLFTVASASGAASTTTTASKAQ

B1: OTF1 site at 5' end of 280 bp fragment (dsDNA)
DNA 1: ATTTTCAT
DNA 2: ATGAAAAT
In the case of B1, the binding result is “binds”.
